We go through eight molecules from patent publication US20250304643A1 (BAINAN BIOTECH, published 2025).

*1 amine or outer side, *2 acyl side, *3 side chain or, on linkers, in order; H or OH if unused. Where no end group is shown, it is not given here. Side-chain parts run from the residue outwards. [ ]: non-standard residue; d: D form. The star is where a group is joined. γGlu = O=C(O)[C@H](CCC(=O)[*:2])N[*:1]; Palmitoyl = CCCCCCCCCCCCCCCC(=O)*; Decanoyl = CCCCCCCCCC(=O)*; Aib = CC(C)(N)C(=O)O

B1: Compound no. 31 (peptide)
peptide: H[Aib]DGTFISDYK([γGlu-Decanoyl])TILDKLAARDFIEWLIATKITK-OH
modifications: N-terminus assumed
SMILES: CCCCCCCCCC(=O)N[C@@H](CCC(=O)NCCCC[C@H](NC(=O)[C@H](Cc1ccc(O)cc1)NC(=O)[C@H](CC(=O)O)NC(=O)[C@H](CO)NC(=O)[C@@H](NC(=O)[C@H](Cc1ccccc1)NC(=O)[C@@H](NC(=O)CNC(=O)[C@H](CC(=O)O)NC(=O)C(C)(C)NC(=O)[C@@H](N)Cc1c[nH]cn1)[C@@H](C)O)[C@@H](C)CC)C(=O)N[C@H](C(=O)N[C@H](C(=O)N[C@@H](CC(C)C)C(=O)N[C@@H](CC(=O)O)C(=O)N[C@@H](CCCCN)C(=O)N[C@@H](CC(C)C)C(=O)N[C@@H](C)C(=O)N[C@@H](C)C(=O)N[C@@H](CCCNC(=N)N)C(=O)N[C@@H](CC(=O)O)C(=O)N[C@@H](Cc1ccccc1)C(=O)N[C@H](C(=O)N[C@@H](CCC(=O)O)C(=O)N[C@@H](Cc1c[nH]c2ccccc12)C(=O)N[C@@H](CC(C)C)C(=O)N[C@H](C(=O)N[C@@H](C)C(=O)N[C@H](C(=O)N[C@@H](CCCCN)C(=O)N[C@H](C(=O)N[C@H](C(=O)N[C@@H](CCCCN)C(=O)O)[C@@H](C)O)[C@@H](C)CC)[C@@H](C)O)[C@@H](C)CC)[C@@H](C)CC)[C@@H](C)CC)[C@@H](C)O)C(=O)O
B2: Compound no. 11 (peptide)
peptide: HXDGTFISDYKTILDNLAARDFINWLIQTKITK
modifications: Aib at 2; K(γGlu-C16) at 11; C-terminus -OH
B3: Compound no. 6 (peptide)
peptide: Palmitoyl-H[Aib]DGTFISDYSTILD[Aib]LAARDFINWLIQTKITK-OH
SMILES: CCCCCCCCCCCCCCCC(=O)N[C@@H](Cc1c[nH]cn1)C(=O)NC(C)(C)C(=O)N[C@@H](CC(=O)O)C(=O)NCC(=O)N[C@H](C(=O)N[C@@H](Cc1ccccc1)C(=O)N[C@H](C(=O)N[C@@H](CO)C(=O)N[C@@H](CC(=O)O)C(=O)N[C@@H](Cc1ccc(O)cc1)C(=O)N[C@@H](CO)C(=O)N[C@H](C(=O)N[C@H](C(=O)N[C@@H](CC(C)C)C(=O)N[C@@H](CC(=O)O)C(=O)NC(C)(C)C(=O)N[C@@H](CC(C)C)C(=O)N[C@@H](C)C(=O)N[C@@H](C)C(=O)N[C@@H](CCCNC(=N)N)C(=O)N[C@@H](CC(=O)O)C(=O)N[C@@H](Cc1ccccc1)C(=O)N[C@H](C(=O)N[C@@H](CC(N)=O)C(=O)N[C@@H](Cc1c[nH]c2ccccc12)C(=O)N[C@@H](CC(C)C)C(=O)N[C@H](C(=O)N[C@@H](CCC(N)=O)C(=O)N[C@H](C(=O)N[C@@H](CCCCN)C(=O)N[C@H](C(=O)N[C@H](C(=O)N[C@@H](CCCCN)C(=O)O)[C@@H](C)O)[C@@H](C)CC)[C@@H](C)O)[C@@H](C)CC)[C@@H](C)CC)[C@@H](C)CC)[C@@H](C)O)[C@@H](C)CC)[C@@H](C)O
B4: Compound no. 5 (peptide)
peptide: Palmitoyl-H[Aib]DGTFISDYST[Aib]LDNLAARDFINWLIQTKITK-OH
SMILES: CCCCCCCCCCCCCCCC(=O)N[C@@H](Cc1c[nH]cn1)C(=O)NC(C)(C)C(=O)N[C@@H](CC(=O)O)C(=O)NCC(=O)N[C@H](C(=O)N[C@@H](Cc1ccccc1)C(=O)N[C@H](C(=O)N[C@@H](CO)C(=O)N[C@@H](CC(=O)O)C(=O)N[C@@H](Cc1ccc(O)cc1)C(=O)N[C@@H](CO)C(=O)N[C@H](C(=O)NC(C)(C)C(=O)N[C@@H](CC(C)C)C(=O)N[C@@H](CC(=O)O)C(=O)N[C@@H](CC(N)=O)C(=O)N[C@@H](CC(C)C)C(=O)N[C@@H](C)C(=O)N[C@@H](C)C(=O)N[C@@H](CCCNC(=N)N)C(=O)N[C@@H](CC(=O)O)C(=O)N[C@@H](Cc1ccccc1)C(=O)N[C@H](C(=O)N[C@@H](CC(N)=O)C(=O)N[C@@H](Cc1c[nH]c2ccccc12)C(=O)N[C@@H](CC(C)C)C(=O)N[C@H](C(=O)N[C@@H](CCC(N)=O)C(=O)N[C@H](C(=O)N[C@@H](CCCCN)C(=O)N[C@H](C(=O)N[C@H](C(=O)N[C@@H](CCCCN)C(=O)O)[C@@H](C)O)[C@@H](C)CC)[C@@H](C)O)[C@@H](C)CC)[C@@H](C)CC)[C@@H](C)O)[C@@H](C)CC)[C@@H](C)O
B5: Compound no. 44 (peptide)
peptide: Decanoyl-H[Aib]DGTFISDYST[Aib]LDNLAARDFINWLIQTKITK-OH
SMILES: CCCCCCCCCC(=O)N[C@@H](Cc1c[nH]cn1)C(=O)NC(C)(C)C(=O)N[C@@H](CC(=O)O)C(=O)NCC(=O)N[C@H](C(=O)N[C@@H](Cc1ccccc1)C(=O)N[C@H](C(=O)N[C@@H](CO)C(=O)N[C@@H](CC(=O)O)C(=O)N[C@@H](Cc1ccc(O)cc1)C(=O)N[C@@H](CO)C(=O)N[C@H](C(=O)NC(C)(C)C(=O)N[C@@H](CC(C)C)C(=O)N[C@@H](CC(=O)O)C(=O)N[C@@H](CC(N)=O)C(=O)N[C@@H](CC(C)C)C(=O)N[C@@H](C)C(=O)N[C@@H](C)C(=O)N[C@@H](CCCNC(=N)N)C(=O)N[C@@H](CC(=O)O)C(=O)N[C@@H](Cc1ccccc1)C(=O)N[C@H](C(=O)N[C@@H](CC(N)=O)C(=O)N[C@@H](Cc1c[nH]c2ccccc12)C(=O)N[C@@H](CC(C)C)C(=O)N[C@H](C(=O)N[C@@H](CCC(N)=O)C(=O)N[C@H](C(=O)N[C@@H](CCCCN)C(=O)N[C@H](C(=O)N[C@H](C(=O)N[C@@H](CCCCN)C(=O)O)[C@@H](C)O)[C@@H](C)CC)[C@@H](C)O)[C@@H](C)CC)[C@@H](C)CC)[C@@H](C)O)[C@@H](C)CC)[C@@H](C)O
B6: Compound no. 7 (peptide)
peptide: Palmitoyl-H[Aib]DGTFISDYSTILDNLAARDFIEWLIQTKITK-OH
SMILES: CCCCCCCCCCCCCCCC(=O)N[C@@H](Cc1c[nH]cn1)C(=O)NC(C)(C)C(=O)N[C@@H](CC(=O)O)C(=O)NCC(=O)N[C@H](C(=O)N[C@@H](Cc1ccccc1)C(=O)N[C@H](C(=O)N[C@@H](CO)C(=O)N[C@@H](CC(=O)O)C(=O)N[C@@H](Cc1ccc(O)cc1)C(=O)N[C@@H](CO)C(=O)N[C@H](C(=O)N[C@H](C(=O)N[C@@H](CC(C)C)C(=O)N[C@@H](CC(=O)O)C(=O)N[C@@H](CC(N)=O)C(=O)N[C@@H](CC(C)C)C(=O)N[C@@H](C)C(=O)N[C@@H](C)C(=O)N[C@@H](CCCNC(=N)N)C(=O)N[C@@H](CC(=O)O)C(=O)N[C@@H](Cc1ccccc1)C(=O)N[C@H](C(=O)N[C@@H](CCC(=O)O)C(=O)N[C@@H](Cc1c[nH]c2ccccc12)C(=O)N[C@@H](CC(C)C)C(=O)N[C@H](C(=O)N[C@@H](CCC(N)=O)C(=O)N[C@H](C(=O)N[C@@H](CCCCN)C(=O)N[C@H](C(=O)N[C@H](C(=O)N[C@@H](CCCCN)C(=O)O)[C@@H](C)O)[C@@H](C)CC)[C@@H](C)O)[C@@H](C)CC)[C@@H](C)CC)[C@@H](C)CC)[C@@H](C)O)[C@@H](C)CC)[C@@H](C)O
B7: Compound no. 8 (peptide)
peptide: Palmitoyl-H[Aib]DGTFISDYSTILDNLAARDFIEWLIQTKIT-OH
SMILES: CCCCCCCCCCCCCCCC(=O)N[C@@H](Cc1c[nH]cn1)C(=O)NC(C)(C)C(=O)N[C@@H](CC(=O)O)C(=O)NCC(=O)N[C@H](C(=O)N[C@@H](Cc1ccccc1)C(=O)N[C@H](C(=O)N[C@@H](CO)C(=O)N[C@@H](CC(=O)O)C(=O)N[C@@H](Cc1ccc(O)cc1)C(=O)N[C@@H](CO)C(=O)N[C@H](C(=O)N[C@H](C(=O)N[C@@H](CC(C)C)C(=O)N[C@@H](CC(=O)O)C(=O)N[C@@H](CC(N)=O)C(=O)N[C@@H](CC(C)C)C(=O)N[C@@H](C)C(=O)N[C@@H](C)C(=O)N[C@@H](CCCNC(=N)N)C(=O)N[C@@H](CC(=O)O)C(=O)N[C@@H](Cc1ccccc1)C(=O)N[C@H](C(=O)N[C@@H](CCC(=O)O)C(=O)N[C@@H](Cc1c[nH]c2ccccc12)C(=O)N[C@@H](CC(C)C)C(=O)N[C@H](C(=O)N[C@@H](CCC(N)=O)C(=O)N[C@H](C(=O)N[C@@H](CCCCN)C(=O)N[C@H](C(=O)N[C@H](C(=O)O)[C@@H](C)O)[C@@H](C)CC)[C@@H](C)O)[C@@H](C)CC)[C@@H](C)CC)[C@@H](C)CC)[C@@H](C)O)[C@@H](C)CC)[C@@H](C)O
B8: Compound no. 10 (peptide)
peptide: H[Aib]DGTFK([γGlu-Palmitoyl])SDYSTILDNLAARDFINWLIQTKITK-OH
modifications: N-terminus assumed
SMILES: CCCCCCCCCCCCCCCC(=O)N[C@@H](CCC(=O)NCCCC[C@H](NC(=O)[C@H](Cc1ccccc1)NC(=O)[C@@H](NC(=O)CNC(=O)[C@H](CC(=O)O)NC(=O)C(C)(C)NC(=O)[C@@H](N)Cc1c[nH]cn1)[C@@H](C)O)C(=O)N[C@@H](CO)C(=O)N[C@@H](CC(=O)O)C(=O)N[C@@H](Cc1ccc(O)cc1)C(=O)N[C@@H](CO)C(=O)N[C@H](C(=O)N[C@H](C(=O)N[C@@H](CC(C)C)C(=O)N[C@@H](CC(=O)O)C(=O)N[C@@H](CC(N)=O)C(=O)N[C@@H](CC(C)C)C(=O)N[C@@H](C)C(=O)N[C@@H](C)C(=O)N[C@@H](CCCNC(=N)N)C(=O)N[C@@H](CC(=O)O)C(=O)N[C@@H](Cc1ccccc1)C(=O)N[C@H](C(=O)N[C@@H](CC(N)=O)C(=O)N[C@@H](Cc1c[nH]c2ccccc12)C(=O)N[C@@H](CC(C)C)C(=O)N[C@H](C(=O)N[C@@H](CCC(N)=O)C(=O)N[C@H](C(=O)N[C@@H](CCCCN)C(=O)N[C@H](C(=O)N[C@H](C(=O)N[C@@H](CCCCN)C(=O)O)[C@@H](C)O)[C@@H](C)CC)[C@@H](C)O)[C@@H](C)CC)[C@@H](C)CC)[C@@H](C)CC)[C@@H](C)O)C(=O)O

The target in the experiment is human GLP-1R (GLP-1 receptor) (human, UniProt P43220 24-463). Nature of the experiment: cell-based or functional assay.
For the molecule B1, the “cAMP assay: EC50 (nM) GLP-1R” value came out at 39.8 nM, the “cAMP assay: Efficacy GLP-1R” value amounted to 6% and the “cAMP assay: logEC50 GLP-1R” value was determined as 7.4.
Consider B2, for which the “cAMP assay: Efficacy GLP-1R” value came to 11%.
For B3, the “cAMP assay: EC50 (nM) GLP-1R” value is 39.8 nM, the “cAMP assay: Efficacy GLP-1R” value was 34% and the “cAMP assay: logEC50 GLP-1R” value was found to be 7.4.
Turning to B4, the “cAMP assay: Efficacy GLP-1R” value was determined as 6%.
Still for that read-out and setting: in the case of B5 it was 19%.
Consider B6, for which the “cAMP assay: EC50 (nM) GLP-1R” value is 39.8 nM, the “cAMP assay: Efficacy GLP-1R” value amounted to 13% and the “cAMP assay: logEC50 GLP-1R” value came out at 7.4.
For B7, in that order: 10 nM, 19% and 8.
Take B8: the “cAMP assay: EC50 (nM) GLP-1R” value came out at 100 nM, the “cAMP assay: Efficacy GLP-1R” value was found to be 10% and the “cAMP assay: logEC50 GLP-1R” value was determined as 7.
